*1 amine or outer side, *2 acyl side, *3 side chain or, on linkers, in order; H or OH if unused. Side-chain parts run from the residue outwards. [ ]: non-standard residue; d: D form. The star is where a group is joined. γGlu = O=C(O)[C@H](CCC(=O)[*:2])N[*:1]; Desaminohistidyl = O=C(CCc1c[nH]cn1)*
B1: N^ε16-[(4S)-4-[[(4S)-4-[[(4S)-4-[[(4S)-4-acetamido-4-carboxybutanoyl]amino]-4-carboxybutanoyl]amino]-4-carboxybutanoyl]amino]-4-carboxybutanoyl]-[Imp1, His3, … (peptide)
peptide: [Desaminohistidyl]SHGTFTSDYSKYLEK([γGlu-γGlu-γGlu-γGlu-Ac])RRAQEFVQWLLST-OH
SMILES: CC(=O)N[C@@H](CCC(=O)N[C@@H](CCC(=O)N[C@@H](CCC(=O)N[C@@H](CCC(=O)NCCCC[C@H](NC(=O)[C@H](CCC(=O)O)NC(=O)[C@H](CC(C)C)NC(=O)[C@H](Cc1ccc(O)cc1)NC(=O)[C@H](CCCCN)NC(=O)[C@H](CO)NC(=O)[C@H](Cc1ccc(O)cc1)NC(=O)[C@H](CC(=O)O)NC(=O)[C@H](CO)NC(=O)[C@@H](NC(=O)[C@H](Cc1ccccc1)NC(=O)[C@@H](NC(=O)CNC(=O)[C@H](Cc1c[nH]cn1)NC(=O)[C@H](CO)NC(=O)CCc1c[nH]cn1)[C@@H](C)O)[C@@H](C)O)C(=O)N[C@@H](CCCNC(=N)N)C(=O)N[C@@H](CCCNC(=N)N)C(=O)N[C@@H](C)C(=O)N[C@@H](CCC(N)=O)C(=O)N[C@@H](CCC(=O)O)C(=O)N[C@@H](Cc1ccccc1)C(=O)N[C@H](C(=O)N[C@@H](CCC(N)=O)C(=O)N[C@@H](Cc1c[nH]c2ccccc12)C(=O)N[C@@H](CC(C)C)C(=O)N[C@@H](CC(C)C)C(=O)N[C@@H](CO)C(=O)N[C@H](C(=O)O)[C@@H](C)O)C(C)C)C(=O)O)C(=O)O)C(=O)O)C(=O)O
notes: Imp written X under substitutions
B2: N^ε24-[(4S)-4-[[(4S)-4-[[(4S)-4-[[(4S)-4-acetamido-4-carboxybutanoyl]amino]-4-carboxybutanoyl]amino]-4-carboxybutanoyl]amino]-4-carboxybutanoyl]-[Imp1, His3, … (peptide)
peptide: [Desaminohistidyl]SHGTFTSDYSKYLDLRRAQEFVK([γGlu-γGlu-γGlu-γGlu-Ac])WLLST-OH
SMILES: CC(=O)N[C@@H](CCC(=O)N[C@@H](CCC(=O)N[C@@H](CCC(=O)N[C@@H](CCC(=O)NCCCC[C@H](NC(=O)[C@@H](NC(=O)[C@H](Cc1ccccc1)NC(=O)[C@H](CCC(=O)O)NC(=O)[C@H](CCC(N)=O)NC(=O)[C@H](C)NC(=O)[C@H](CCCNC(=N)N)NC(=O)[C@H](CCCNC(=N)N)NC(=O)[C@H](CC(C)C)NC(=O)[C@H](CC(=O)O)NC(=O)[C@H](CC(C)C)NC(=O)[C@H](Cc1ccc(O)cc1)NC(=O)[C@H](CCCCN)NC(=O)[C@H](CO)NC(=O)[C@H](Cc1ccc(O)cc1)NC(=O)[C@H](CC(=O)O)NC(=O)[C@H](CO)NC(=O)[C@@H](NC(=O)[C@H](Cc1ccccc1)NC(=O)[C@@H](NC(=O)CNC(=O)[C@H](Cc1c[nH]cn1)NC(=O)[C@H](CO)NC(=O)CCc1c[nH]cn1)[C@@H](C)O)[C@@H](C)O)C(C)C)C(=O)N[C@@H](Cc1c[nH]c2ccccc12)C(=O)N[C@@H](CC(C)C)C(=O)N[C@@H](CC(C)C)C(=O)N[C@@H](CO)C(=O)N[C@H](C(=O)O)[C@@H](C)O)C(=O)O)C(=O)O)C(=O)O)C(=O)O
notes: as for B1
B3: N^ε20-[(4S)-4-[[(4S)-4-[[(4S)-4-[[(4S)-4-acetamido-4-carboxybutanoyl]amino]-4-carboxybutanoyl]amino]-4-carboxybutanoyl]amino]-4-carboxybutanoyl]-[Imp1, His3, … (peptide)
peptide: [Desaminohistidyl]SHGTFTSDYSKYLESRRAK([γGlu-γGlu-γGlu-γGlu-Ac])EFVQWLLST-OH
SMILES: CC(=O)N[C@@H](CCC(=O)N[C@@H](CCC(=O)N[C@@H](CCC(=O)N[C@@H](CCC(=O)NCCCC[C@H](NC(=O)[C@H](C)NC(=O)[C@H](CCCNC(=N)N)NC(=O)[C@H](CCCNC(=N)N)NC(=O)[C@H](CO)NC(=O)[C@H](CCC(=O)O)NC(=O)[C@H](CC(C)C)NC(=O)[C@H](Cc1ccc(O)cc1)NC(=O)[C@H](CCCCN)NC(=O)[C@H](CO)NC(=O)[C@H](Cc1ccc(O)cc1)NC(=O)[C@H](CC(=O)O)NC(=O)[C@H](CO)NC(=O)[C@@H](NC(=O)[C@H](Cc1ccccc1)NC(=O)[C@@H](NC(=O)CNC(=O)[C@H](Cc1c[nH]cn1)NC(=O)[C@H](CO)NC(=O)CCc1c[nH]cn1)[C@@H](C)O)[C@@H](C)O)C(=O)N[C@@H](CCC(=O)O)C(=O)N[C@@H](Cc1ccccc1)C(=O)N[C@H](C(=O)N[C@@H](CCC(N)=O)C(=O)N[C@@H](Cc1c[nH]c2ccccc12)C(=O)N[C@@H](CC(C)C)C(=O)N[C@@H](CC(C)C)C(=O)N[C@@H](CO)C(=O)N[C@H](C(=O)O)[C@@H](C)O)C(C)C)C(=O)O)C(=O)O)C(=O)O)C(=O)O
notes: as for B1
B4: N^ε24-[(4S)-4-[[(4S)-4-[[(4S)-4-[[(4S)-4-acetamido-4-carboxybutanoyl]amino]-4-carboxybutanoyl]amino]-4-carboxybutanoyl]amino]-4-carboxybutanoyl]-[Imp1, His3, … (peptide)
peptide: [Desaminohistidyl]SHGTFTSDYSKYLESRRAQDFVK([γGlu-γGlu-γGlu-γGlu-Ac])WLLST-OH
SMILES: CC(=O)N[C@@H](CCC(=O)N[C@@H](CCC(=O)N[C@@H](CCC(=O)N[C@@H](CCC(=O)NCCCC[C@H](NC(=O)[C@@H](NC(=O)[C@H](Cc1ccccc1)NC(=O)[C@H](CC(=O)O)NC(=O)[C@H](CCC(N)=O)NC(=O)[C@H](C)NC(=O)[C@H](CCCNC(=N)N)NC(=O)[C@H](CCCNC(=N)N)NC(=O)[C@H](CO)NC(=O)[C@H](CCC(=O)O)NC(=O)[C@H](CC(C)C)NC(=O)[C@H](Cc1ccc(O)cc1)NC(=O)[C@H](CCCCN)NC(=O)[C@H](CO)NC(=O)[C@H](Cc1ccc(O)cc1)NC(=O)[C@H](CC(=O)O)NC(=O)[C@H](CO)NC(=O)[C@@H](NC(=O)[C@H](Cc1ccccc1)NC(=O)[C@@H](NC(=O)CNC(=O)[C@H](Cc1c[nH]cn1)NC(=O)[C@H](CO)NC(=O)CCc1c[nH]cn1)[C@@H](C)O)[C@@H](C)O)C(C)C)C(=O)N[C@@H](Cc1c[nH]c2ccccc12)C(=O)N[C@@H](CC(C)C)C(=O)N[C@@H](CC(C)C)C(=O)N[C@@H](CO)C(=O)N[C@H](C(=O)O)[C@@H](C)O)C(=O)O)C(=O)O)C(=O)O)C(=O)O
notes: as for B1
B5: N^ε24-[(4S)-4-[[(4S)-4-[[(4S)-4-[[(4S)-4-acetamido-4-carboxybutanoyl]amino]-4-carboxybutanoyl]amino]-4-carboxybutanoyl]amino]-4-carboxybutanoyl]-[Imp1, His3, … (peptide)
peptide: [Desaminohistidyl]SHGTFTSDYSKYLDARRAQDFVK([γGlu-γGlu-γGlu-γGlu-Ac])WLLST-OH
SMILES: CC(=O)N[C@@H](CCC(=O)N[C@@H](CCC(=O)N[C@@H](CCC(=O)N[C@@H](CCC(=O)NCCCC[C@H](NC(=O)[C@@H](NC(=O)[C@H](Cc1ccccc1)NC(=O)[C@H](CC(=O)O)NC(=O)[C@H](CCC(N)=O)NC(=O)[C@H](C)NC(=O)[C@H](CCCNC(=N)N)NC(=O)[C@H](CCCNC(=N)N)NC(=O)[C@H](C)NC(=O)[C@H](CC(=O)O)NC(=O)[C@H](CC(C)C)NC(=O)[C@H](Cc1ccc(O)cc1)NC(=O)[C@H](CCCCN)NC(=O)[C@H](CO)NC(=O)[C@H](Cc1ccc(O)cc1)NC(=O)[C@H](CC(=O)O)NC(=O)[C@H](CO)NC(=O)[C@@H](NC(=O)[C@H](Cc1ccccc1)NC(=O)[C@@H](NC(=O)CNC(=O)[C@H](Cc1c[nH]cn1)NC(=O)[C@H](CO)NC(=O)CCc1c[nH]cn1)[C@@H](C)O)[C@@H](C)O)C(C)C)C(=O)N[C@@H](Cc1c[nH]c2ccccc12)C(=O)N[C@@H](CC(C)C)C(=O)N[C@@H](CC(C)C)C(=O)N[C@@H](CO)C(=O)N[C@H](C(=O)O)[C@@H](C)O)C(=O)O)C(=O)O)C(=O)O)C(=O)O
notes: as for B1
B6: N^ε24-[(4S)-4-[[(4S)-4-[[(4S)-4-[[(4S)-4-acetamido-4-carboxybutanoyl]amino]-4-carboxybutanoyl]amino]-4-carboxybutanoyl]amino]-4-carboxybutanoyl]-[Imp1, His3, … (peptide)
peptide: [Desaminohistidyl]SHGTFTSDYSKYLESRRAQEFVK([γGlu-γGlu-γGlu-γGlu-Ac])WLLET-OH
SMILES: CC(=O)N[C@@H](CCC(=O)N[C@@H](CCC(=O)N[C@@H](CCC(=O)N[C@@H](CCC(=O)NCCCC[C@H](NC(=O)[C@@H](NC(=O)[C@H](Cc1ccccc1)NC(=O)[C@H](CCC(=O)O)NC(=O)[C@H](CCC(N)=O)NC(=O)[C@H](C)NC(=O)[C@H](CCCNC(=N)N)NC(=O)[C@H](CCCNC(=N)N)NC(=O)[C@H](CO)NC(=O)[C@H](CCC(=O)O)NC(=O)[C@H](CC(C)C)NC(=O)[C@H](Cc1ccc(O)cc1)NC(=O)[C@H](CCCCN)NC(=O)[C@H](CO)NC(=O)[C@H](Cc1ccc(O)cc1)NC(=O)[C@H](CC(=O)O)NC(=O)[C@H](CO)NC(=O)[C@@H](NC(=O)[C@H](Cc1ccccc1)NC(=O)[C@@H](NC(=O)CNC(=O)[C@H](Cc1c[nH]cn1)NC(=O)[C@H](CO)NC(=O)CCc1c[nH]cn1)[C@@H](C)O)[C@@H](C)O)C(C)C)C(=O)N[C@@H](Cc1c[nH]c2ccccc12)C(=O)N[C@@H](CC(C)C)C(=O)N[C@@H](CC(C)C)C(=O)N[C@@H](CCC(=O)O)C(=O)N[C@H](C(=O)O)[C@@H](C)O)C(=O)O)C(=O)O)C(=O)O)C(=O)O
notes: as for B1
B7: N^ε24-[(4S)-4-[[(4S)-4-[[(4S)-4-[[(4S)-4-acetamido-4-carboxybutanoyl]amino]-4-carboxybutanoyl]amino]-4-carboxybutanoyl]amino]-4-carboxybutanoyl]-[Imp1, His3, … (peptide)
peptide: [Desaminohistidyl]SHGTFTSDYSKYLDLRRAQDFVK([γGlu-γGlu-γGlu-γGlu-Ac])WLLST-OH
SMILES: CC(=O)N[C@@H](CCC(=O)N[C@@H](CCC(=O)N[C@@H](CCC(=O)N[C@@H](CCC(=O)NCCCC[C@H](NC(=O)[C@@H](NC(=O)[C@H](Cc1ccccc1)NC(=O)[C@H](CC(=O)O)NC(=O)[C@H](CCC(N)=O)NC(=O)[C@H](C)NC(=O)[C@H](CCCNC(=N)N)NC(=O)[C@H](CCCNC(=N)N)NC(=O)[C@H](CC(C)C)NC(=O)[C@H](CC(=O)O)NC(=O)[C@H](CC(C)C)NC(=O)[C@H](Cc1ccc(O)cc1)NC(=O)[C@H](CCCCN)NC(=O)[C@H](CO)NC(=O)[C@H](Cc1ccc(O)cc1)NC(=O)[C@H](CC(=O)O)NC(=O)[C@H](CO)NC(=O)[C@@H](NC(=O)[C@H](Cc1ccccc1)NC(=O)[C@@H](NC(=O)CNC(=O)[C@H](Cc1c[nH]cn1)NC(=O)[C@H](CO)NC(=O)CCc1c[nH]cn1)[C@@H](C)O)[C@@H](C)O)C(C)C)C(=O)N[C@@H](Cc1c[nH]c2ccccc12)C(=O)N[C@@H](CC(C)C)C(=O)N[C@@H](CC(C)C)C(=O)N[C@@H](CO)C(=O)N[C@H](C(=O)O)[C@@H](C)O)C(=O)O)C(=O)O)C(=O)O)C(=O)O
notes: as for B1

Legend:
human glucagon receptor [1] = target: T1, human glucagon receptor (human, UniProt P47871 26-477); test: cell-based or functional assay
human glucagon receptor [2] = target: T1, human glucagon receptor; test: displacement of 125I-glucagon from BHK membranes with human glucagon receptor (SPA), Assay (II)(b)

T1 sequence (P47871 26-477): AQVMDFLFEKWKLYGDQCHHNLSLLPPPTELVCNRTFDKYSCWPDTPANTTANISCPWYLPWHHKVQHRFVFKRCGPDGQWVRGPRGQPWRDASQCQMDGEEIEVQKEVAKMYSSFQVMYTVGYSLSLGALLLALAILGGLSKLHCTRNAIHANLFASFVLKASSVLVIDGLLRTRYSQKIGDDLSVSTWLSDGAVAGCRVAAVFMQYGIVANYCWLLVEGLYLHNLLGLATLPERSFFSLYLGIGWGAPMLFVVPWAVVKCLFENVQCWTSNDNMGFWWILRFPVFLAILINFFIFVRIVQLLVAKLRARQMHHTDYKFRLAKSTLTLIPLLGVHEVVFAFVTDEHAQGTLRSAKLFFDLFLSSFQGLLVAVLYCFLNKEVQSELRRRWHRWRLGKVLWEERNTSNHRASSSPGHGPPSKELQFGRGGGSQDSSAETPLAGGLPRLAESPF

Row | Binder | EC50 hGlucagonR (pM), CRE luciferase reporter in BHK cells (human glucagon receptor [1]) [pM] | IC50 (human glucagon receptor [2]) [nM]
1 | B1 | 105 | 24.4
2 | B2 | 1 | 0.2
3 | B3 | 41 | 7.6
4 | B4 | 12 | 6.2
5 | B5 | 4 | 0.9
6 | B6 | 17 | 8.7
7 | B7 | 3 | 0.5

Source: patent US20170008943A1 (Novo Nordisk, published 2017)
